Experimental data as given in publication doi:10.1101/411223 (bioRxiv, 2018).

What was measured:
[1] = target: His-tagged RanQ69L, P62826; test: SEC; details: remark: other sources report otherwise
Kap114p (Δ347-371) = target: T1, Kap114p (Δ347-371) (S. cerevisiae, UniProt P53067 1-1004, Δ347-371); test: pull-down
T1 sequence (looked up): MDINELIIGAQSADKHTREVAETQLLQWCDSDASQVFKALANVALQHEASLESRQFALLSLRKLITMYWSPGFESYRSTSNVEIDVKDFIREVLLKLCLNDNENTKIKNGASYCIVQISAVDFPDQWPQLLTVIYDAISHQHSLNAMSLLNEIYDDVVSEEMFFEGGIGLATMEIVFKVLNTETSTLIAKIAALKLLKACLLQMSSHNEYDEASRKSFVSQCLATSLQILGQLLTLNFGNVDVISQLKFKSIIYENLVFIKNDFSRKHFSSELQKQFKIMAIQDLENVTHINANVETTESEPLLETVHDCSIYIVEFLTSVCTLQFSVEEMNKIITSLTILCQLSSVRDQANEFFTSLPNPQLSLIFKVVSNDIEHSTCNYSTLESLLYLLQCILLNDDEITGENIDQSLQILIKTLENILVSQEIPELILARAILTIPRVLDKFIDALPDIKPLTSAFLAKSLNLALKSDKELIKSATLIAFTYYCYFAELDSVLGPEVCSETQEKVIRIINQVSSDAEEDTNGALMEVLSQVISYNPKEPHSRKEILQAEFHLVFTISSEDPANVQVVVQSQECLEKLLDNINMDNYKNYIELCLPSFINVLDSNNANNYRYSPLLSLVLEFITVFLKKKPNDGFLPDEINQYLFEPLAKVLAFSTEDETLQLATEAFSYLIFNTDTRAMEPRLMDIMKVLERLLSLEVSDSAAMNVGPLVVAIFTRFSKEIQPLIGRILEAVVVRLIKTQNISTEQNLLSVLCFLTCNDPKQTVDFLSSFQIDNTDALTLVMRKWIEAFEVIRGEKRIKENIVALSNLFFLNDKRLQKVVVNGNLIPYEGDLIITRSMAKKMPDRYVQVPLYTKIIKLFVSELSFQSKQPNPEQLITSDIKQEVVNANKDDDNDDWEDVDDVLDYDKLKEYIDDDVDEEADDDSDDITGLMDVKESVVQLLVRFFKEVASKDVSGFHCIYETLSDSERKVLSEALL

Kap114p (Δ899-956) = target: T2, Kap114p (Δ899-956) (S. cerevisiae, UniProt P53067 1-1004, Δ899-956); test: pull-down
T2 sequence (looked up): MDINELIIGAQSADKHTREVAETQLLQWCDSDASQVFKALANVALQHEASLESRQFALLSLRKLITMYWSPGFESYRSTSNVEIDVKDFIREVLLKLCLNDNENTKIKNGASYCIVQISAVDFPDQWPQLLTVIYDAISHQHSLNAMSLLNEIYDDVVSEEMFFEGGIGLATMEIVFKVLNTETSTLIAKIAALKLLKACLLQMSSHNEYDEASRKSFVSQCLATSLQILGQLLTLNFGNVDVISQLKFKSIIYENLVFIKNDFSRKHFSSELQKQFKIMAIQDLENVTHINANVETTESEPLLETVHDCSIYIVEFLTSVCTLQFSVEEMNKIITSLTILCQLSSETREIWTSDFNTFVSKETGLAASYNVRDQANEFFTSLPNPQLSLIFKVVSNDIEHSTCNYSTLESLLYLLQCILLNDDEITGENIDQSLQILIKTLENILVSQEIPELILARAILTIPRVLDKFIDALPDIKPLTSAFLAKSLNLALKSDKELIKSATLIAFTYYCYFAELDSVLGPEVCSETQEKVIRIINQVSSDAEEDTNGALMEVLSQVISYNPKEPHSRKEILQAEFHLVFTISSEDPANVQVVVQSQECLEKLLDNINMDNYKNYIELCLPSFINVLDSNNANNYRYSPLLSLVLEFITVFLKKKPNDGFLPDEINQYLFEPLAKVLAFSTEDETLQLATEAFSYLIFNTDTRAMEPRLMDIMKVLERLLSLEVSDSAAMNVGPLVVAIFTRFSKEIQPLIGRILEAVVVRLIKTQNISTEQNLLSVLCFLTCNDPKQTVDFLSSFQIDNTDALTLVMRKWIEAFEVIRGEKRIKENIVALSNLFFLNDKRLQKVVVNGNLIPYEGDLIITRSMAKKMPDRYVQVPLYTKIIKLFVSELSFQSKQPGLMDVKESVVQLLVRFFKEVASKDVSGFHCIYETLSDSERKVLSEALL

B1: Kap114p, P53067 1-1004 (natural protein)
chain: MDINELIIGAQSADKHTREVAETQLLQWCDSDASQVFKALANVALQHEASLESRQFALLSLRKLITMYWSPGFESYRSTSNVEIDVKDFIREVLLKLCLNDNENTKIKNGASYCIVQISAVDFPDQWPQLLTVIYDAISHQHSLNAMSLLNEIYDDVVSEEMFFEGGIGLATMEIVFKVLNTETSTLIAKIAALKLLKACLLQMSSHNEYDEASRKSFVSQCLATSLQILGQLLTLNFGNVDVISQLKFKSIIYENLVFIKNDFSRKHFSSELQKQFKIMAIQDLENVTHINANVETTESEPLLETVHDCSIYIVEFLTSVCTLQFSVEEMNKIITSLTILCQLSSETREIWTSDFNTFVSKETGLAASYNVRDQANEFFTSLPNPQLSLIFKVVSNDIEHSTCNYSTLESLLYLLQCILLNDDEITGENIDQSLQILIKTLENILVSQEIPELILARAILTIPRVLDKFIDALPDIKPLTSAFLAKSLNLALKSDKELIKSATLIAFTYYCYFAELDSVLGPEVCSETQEKVIRIINQVSSDAEEDTNGALMEVLSQVISYNPKEPHSRKEILQAEFHLVFTISSEDPANVQVVVQSQECLEKLLDNINMDNYKNYIELCLPSFINVLDSNNANNYRYSPLLSLVLEFITVFLKKKPNDGFLPDEINQYLFEPLAKVLAFSTEDETLQLATEAFSYLIFNTDTRAMEPRLMDIMKVLERLLSLEVSDSAAMNVGPLVVAIFTRFSKEIQPLIGRILEAVVVRLIKTQNISTEQNLLSVLCFLTCNDPKQTVDFLSSFQIDNTDALTLVMRKWIEAFEVIRGEKRIKENIVALSNLFFLNDKRLQKVVVNGNLIPYEGDLIITRSMAKKMPDRYVQVPLYTKIIKLFVSELSFQSKQPNPEQLITSDIKQEVVNANKDDDNDDWEDVDDVLDYDKLKEYIDDDVDEEADDDSDDITGLMDVKESVVQLLVRFFKEVASKDVSGFHCIYETLSDSERKVLSEALL
Binder B1 has a stoichiometry N [1] of 1.

B2: GST-fused yTBP (61-240) (domain or fragment, S. cerevisiae, UniProt P13393 61-240, looked up)
chain: SGIVPTLQNIVATVTLGCRLDLKTVALHARNAEYNPKRFAAVIMRIREPKTTALIFASGKMVVTGAKSEDDSKLASRKYARIIQKIGFAAKFTDFKIQNIVGSCDVKFPIRLEGLAFSHGTFSSYEPELFPGLIYRMVKPKIVLLIFVSGKIVLTGAKQREEIYQAFEAIYPVLSEFRKM
B2: binds (Kap114p (Δ347-371)); binds (Kap114p (Δ899-956)).
